Test results reported in patent US6054163.

Biological target: piscicolin 126 (Carnobacterium piscicola JG126)

With β-Chymotrypsin (enzyme) the residual bacteriocin activity after enzyme treatment (% of original activity; bioassay with Listeria monocytogenes 4A) was 0%.
Substance Trypsin (enzyme) has a residual bacteriocin activity after enzyme treatment (% of original activity; bioassay with Listeria monocytogenes 4A) of 6%.
α-Chymotrypsin (enzyme) was tested, and the residual bacteriocin activity after enzyme treatment (% of original activity; bioassay with Listeria monocytogenes 4A) was 0%.
Lipase (enzyme) gave a residual bacteriocin activity after enzyme treatment (% of original activity; bioassay with Listeria monocytogenes 4A) of 100%.
With Lysozyme (enzyme) the residual bacteriocin activity after enzyme treatment (% of original activity; bioassay with Listeria monocytogenes 4A) was 100%.
Substance Protease XXIII (enzyme) has a residual bacteriocin activity after enzyme treatment (% of original activity; bioassay with Listeria monocytogenes 4A) of 0%.
Work on Pepsin (enzyme) yielded a residual bacteriocin activity after enzyme treatment (% of original activity; bioassay with Listeria monocytogenes 4A) of 100%.
Substance Catalase (enzyme) has a residual bacteriocin activity after enzyme treatment (% of original activity; bioassay with Listeria monocytogenes 4A) of 100%.
With Protease XIV (enzyme) the residual bacteriocin activity after enzyme treatment (% of original activity; bioassay with Listeria monocytogenes 4A) was 3%.
Work on Protease I (enzyme) yielded a residual bacteriocin activity after enzyme treatment (% of original activity; bioassay with Listeria monocytogenes 4A) of 0%.
